From patent publication US20020146846A1 (published 2002) come the findings set out here.

The target of assay [1] is T1, human epithelial glycoprotein-2, recombinant soluble protein (M1-F259) with a six-histidine C-terminal tag (human, UniProt P16422 24-259).
T1 construct: range 1-259; The stated range M1-F259 starts at the initiator methionine; also called recombinant soluble EGP-2-antigen; immobilized EGP-2
T1 sequence: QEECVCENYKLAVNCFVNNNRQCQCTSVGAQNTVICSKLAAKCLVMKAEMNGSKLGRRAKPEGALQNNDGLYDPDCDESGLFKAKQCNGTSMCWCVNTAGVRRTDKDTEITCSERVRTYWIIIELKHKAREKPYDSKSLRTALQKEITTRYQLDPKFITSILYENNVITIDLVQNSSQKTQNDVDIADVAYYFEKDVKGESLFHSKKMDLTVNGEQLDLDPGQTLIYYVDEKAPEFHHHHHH
In words: SPR (BIAcore), immobilized EGP-2, low density coating and high flow rate.

In assay [2] the target is T2, epithelial glycoprotein-2 (EGP-2) on EGP-2 overexpressing SW2 cells (human, UniProt P16422 24-314).
T2 construct: whole, on cells; Endogenous antigen of the human SW2 cell line; also called GA733-2; Ep-CAM
T2 sequence (looked up): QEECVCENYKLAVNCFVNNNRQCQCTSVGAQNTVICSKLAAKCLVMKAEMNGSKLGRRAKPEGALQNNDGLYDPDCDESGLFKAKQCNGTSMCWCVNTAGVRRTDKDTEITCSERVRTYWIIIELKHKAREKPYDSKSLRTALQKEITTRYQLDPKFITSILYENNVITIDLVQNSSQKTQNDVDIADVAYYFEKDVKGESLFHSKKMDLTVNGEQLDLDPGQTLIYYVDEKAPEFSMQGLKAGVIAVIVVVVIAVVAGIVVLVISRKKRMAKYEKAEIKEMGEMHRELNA
The assay is described as follows: RIA of 99mTc-labelled scFv on SW2 cells, 4 C.

Assay [3] addresses T1, human epithelial glycoprotein-2, …. The assay is described as follows: SPR (BIAcore), EGP-2 amine-coupled to CM-5 chip, scFv injected, 20 C.

B1: anti-EGP-2 scFv fragment obtained from the murine hybridoma MOC31 (scFv)
chain: DIVMTQSAFSNPVTLGTSASISCRSTKSLLHSNGITYLYWYLQKPGQSPQLLIYQMSNLASGVPDRFSSSGSGTDFTLRISRVEAEDVGVYYCAQNLEIPRTFGGGTKLEIKRTPSHNSHQVPSAGGPTANSGTSGSQVQLQQSGPELKKPGETVKISCKASGYTFTNYGMNWVKQAPGRGLKWMGWINTYTGESTYADDFKGRFAFSLETSASAAYLQINNLKNEDTATYFCARFAIKGDYWGQGTTLTVSS
With B1, the “half-life of binding on its target” value in assay [1] was ~38 min. Besides, the Kd (in general, a measure of binding affinity in units of concentration) in assay [2] came out at 10.8 nM. For the same molecule, in assay [3], the dissociation constant (Kd) amounted to 3 nM; the off-rate constant (koff) (in general, the rate constant with which the complex falls apart) worked out at 0.0003 s⁻¹; the kon – broadly, the second-order rate constant of association – was 99000 M⁻¹ s⁻¹.

B2: anti-EGP-2 scFv fragment 4D5MOC-B (scFv)
chain: DIQMTQSPSSLSASVGDRVTITCRSTKSLLHSNGITYLYWYQQKPGKAPKLLIYQMSNLASGVPSRFSSSGSGTDFTLTISSLQPEDFATYYCAQNLEIPRTFGQGTKVELKRTPSHNSHQVPSAGGPTANSGTSGSEVQLVQSGPGLVQPGGSVRISCAASGYTFTNYGMNWVKQAPGKGLEWMGWINTYTGESTYADSFKGRFTFSLDTSASAAYLQINSLRAEDTAVYYCARFAIKGDYWGQGTLLTVSS
B2 gave a Kd in assay [2] of 3.7 nM. For the same molecule, in assay [3], the dissociation constant (Kd) was 3.9 nM, the off-rate constant (koff) is 0.000717 s⁻¹ and the kon came out at 184000 M⁻¹ s⁻¹.
